Laboratory results as given in paper PMC8203317 (Journal of immunology (Baltimore, Md. : 1950), 2020).

Key:
Paxillin = Paxillin (UniProt P49023); conditions: cited from earlier work
[1] = molecular target: human Kindlin-3 F0 (1-105), GST tag removed (human, UniProt Q86UX7 1-105); test: NMR titration
Sequence of human Kindlin-3 F0 (1-105), GST tag removed (Q86UX7 1-105): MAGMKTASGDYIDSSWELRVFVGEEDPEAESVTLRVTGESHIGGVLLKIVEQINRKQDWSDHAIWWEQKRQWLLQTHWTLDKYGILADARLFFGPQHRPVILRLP

Kindlin-2 (from UniProt Q96AC1)
Kd (Paxillin): 201 µM

B1: human LPXN LIM4 (324-386), 15N-labeled, GST tag removed (domain or fragment, UniProt O60711 324-386, looked up)
chain: RRGTLCHGCGQPITGRCISAMGYKFHPEHFVCAFCLTQLSKGIFREQNDKTYCQPCFNKLFPL
modifications: also: 15N-labeled
Kd [1]: 192 µM

B2: human PXN (paxillin-γ) LIM4 (541-605), 15N-labeled, GST tag removed (domain or fragment, UniProt P49023-3 541-605, looked up)
chain: YHERRGSLCSGCQKPITGRCITAMAKKFHPEHFVCAFCLKQLNKGTFKEQNDKPYCQNCFLKLFC
modifications: also: 15N-labeled
Kd [1]: 117 µM
